Laboratory results published in the DeepSol protein solubility set.

Assay: soluble on expression in E. coli; label from the status in PepcDB or PDB records
With “HHHHHHHMTAPAADDRIDEIERAITKSRRYQTVAPATVRRLARAALVAARGDVPDAVKRTKRGLHEIYGAFLPPSPPNYAALLRHLDSAVDAGDDEAVRAALLRAMSVHISTRERLPHLDEFYRELFRHLPRPNTLRDLACGLNPLAAPWMGLPAETVYIASDIDARLVGFVDEALTRLNVPHRTNVADLLEDRLDEPADVTLLLKTLPCLETQQRGSGWEVIDIVNSPNIVVTFPTKSLGQRSKGMFQNYSQSFESQARERSCRIQRLEIGNELIYVIQK” the “soluble on expression in E. coli” value was “soluble”.
With “HHHHHHLQGAAPTATVTPSSGLSDGTVVKVAGAGLQAGTAYDVGQCAWVDTGVLACNPADFSSVTADANGSASTSLTVRRSFEGFLFDGTRWGTVDCTTAACQVGLSDAAGNGPEGVAISFN” the “soluble on expression in E. coli” value was “soluble”.
With “HHHHHHSSGLVPRGSHMSCEELEIVWNNIKAEARTLADCEPMLASFYHATLLKHENLGSALSYMLANKLSSPIMPAIAIREVVEEAYAADPEMIASAACDIQAVRTRDPAVDKYSTPLLYLKGFHALQAYRIGHWLWNQGRRALAIFLQNQVSVTFQVDIHPAAKIGRGIMLDHATGIVVGETAVIENDVSILQSVTLGGTGKSGGDRHPKIREGVMIGAGAKILGNIEVGRGAKIGAGSVVLQPVPPHTTAAGVPARIVGKPDSDKPSMDMDQHFNGINHTFEYGDGI” the “soluble on expression in E. coli” value was “soluble”.
For “HKQLNFVDLYYHPVLADMAALLSQKNVFKAIYTFVPRTDDMGDKPALFVIHSGNTGSDVYRPLFTGIKRPSFPIYVIEPHNLLNPEDQIYGIENLAKYYLQMINKFLPESSKREINLMGWSYGGVVASEMCYQLEHETSLLHVNQLTVLDSSFYLSSEDLQRVRKREANGFYAKYFTETHIFEGMDKKNVTTERLIANNHQVCEDLFNYHSKQVNVATTFVRSMVEENPLTDEQIKLLFKHVTIKNVYDGHDYLFVHESSRSLIQDVLGLAA”, the “soluble on expression in E. coli” value was “not soluble”.
For HMGKIYAAMMIMEYYRQSKAKK, the “soluble on expression in E. coli” value was “soluble”.
In the case of “HQPVSFGLSVRKSLPKGFSVETGLTYTLLSSDIKRQGDTKMQSQKLHYIGIPVRGNWNFLEKKYFTLYVSAGGMVEKCVYGKLADDKVNVKPLQFSVAGAVGAQFNATDHVGLYVEPGVSYFFDDGSKVQTIRKERPCNFNLQAGLRFTY”, the “soluble on expression in E. coli” value is reported as “not soluble”.
For “HQYSDLTINPSLGPASPTSFDDLATYRFEQWVNNLDITRAFDGLFGVPLQVSAGLEHRWERFRTFSGDAQAYQVGGYRFPASLPNGQASPLAGQLASIAAQAAAVISPQDATRLQRNNYAAYVDFGITPIEPLFVDLALRAEHFDDDSGNTVSAKLNSRYEFTDTFAVRGTVGTGFRAPSLTQTGYSISDNRVGAAPDGTIVPAVTRIAPVNSALAQALGATTLDPEKSRNLGVGVTWQPAPRTSLTADAYWIEIADRIARTESLYGPALAPTLTAQGVDTSTWTSYYANAFDTRTRGLDIVLD”, the “soluble on expression in E. coli” value was “not soluble”.
In the case of “HSPKVSSQNRTRSFGHFPGPEFLDVEKTSFSQEQSCDSAGEGSERIHQDSESGDELSSSSTEQIRATTPPNQGRPDSPVYANLQELKISQSALPPLPGSPAIQINGEWETHKDSSGRCYYYNRGTQERTWKPPRWTRDASISKGDFQNPGDQEWLKHVDDQGRQYYYSADGSRSEWELPKYNASSQQQREIIKSRSLDRRLQEPIVLTKWRHSTIVLDTNDKESPTASKPCFPENESSPSSPKHQDTDQEKYGLLNVTKIAENGKKVRKNWLSSWAVLQGSSLLFTKTQGSSTSWFGSNQSKPEFTVDLKGATIEMASKDKSSKKNVFELKTRQGTELLIQSDNDTVINDWFKVLSSTINNQAVETDEGIEEEIPDSPGIEKHDKEKEQKDPKKLRSFKVSSIDSSEQKKTKKNLKKFLTRRPTLQAVREKGYIKDQVFGSNLANLCQRENGTVPKFVKLCIEHVEEHGLDIDGIYRVSGNLAVIQKLRFAVNHDEKLDLNDSKWEDIHVITGALKMFFRELPEPLFTFNHFNDFVNAIKQEPRQRVAAVKDLIRQLPKPNQDTMQILFRHLRRVIENGEKNRMTYQSIAIVFGPTLLKPEKETGNIAVHTVYQNQIVELILLELSSIFGR”, the “soluble on expression in E. coli” value is reported as “soluble”.
With “HSSGLVPRGSHMAIIFPGQGAQKVGMAQDLFNNNDQATEILTSAAKTLDFDILETMFTDEEGKLGETENTQPALLTHSSALLAALKNLNPDFTMGHSLGEYSSLVAADVLSFEDAVKIVRKRGQLMAQAFPTGVGSMAAVLGLDFDKVDEICKSLSSDDKIIEPANINCPGQIVVSGHKALIDELVEKGKSLGAKRVMPLAVSGPFHSSLMKVIEEDFSSYINQFEWRDAKFPVVQNVNAQGETDKEVIKSNMVKQLYSPVQFINSTEWLIDQGVDHFIEIGPGKVLSGLIKKINRDVKLTSIQTLEDVKGWNEND” the “soluble on expression in E. coli” value was “soluble”.
In the case of “HVKVGFSPEKLRPYTTMPADFQQFWENQKAELAKFPLTYTKEHVKKYSTDQIDCYLIKLQVNQRGQSIYGYLFYPKKEGKYPVVLCPPGAGIKTIKEPLRHKYYAEQGCIRFEIEIHGLNPEMSEEEFKEISAAFNGRENGYLSNGLDSRDNYYMKRVYLACVRSIDLLTSLPEWDGKNVVVQGGSQGGALALVTAGLDQRVTACVANHPALSDMAGYKAGRAGGYPHFFRNTVDMDTPEKIRTMAYYDVVNFAQLIRADTYMTWGFNDNVCPPTTSYIVYNVLNCPKEALITPINEHWTSSDTEYGHLLWIKKHLK”, the “soluble on expression in E. coli” value is reported as “not soluble”.
With “ICTTICPYGRLQGVLLDKNSINVAYDYIRGERRGHLKRGEDREIAGKGDCIDCHQCVHVCPTGIDIRNGVQMECINCTACIDEC” the “soluble on expression in E. coli” value was “not soluble”.
For “IKTTKALQLNDEQQVAVDQITQAVDQAATTTFLLEGVTGSGKTEVYLQSMAAALVQGKTALMLVPEISLTPQMVQRVKGRFGKAVAVLHSGLSSGEKYDEWRRIQRGEAQVVVGARSAVFAPLKNLGLIVMDEEHESTYKQDDAPRYHARQVALWRSRYHNCPVVLGSATPSLETRARAEKG”, the “soluble on expression in E. coli” value was “not soluble”.
With “IMIRTDRYGVITYANEKFCEILKYDKEELIGQRFDILNSHYHAQRFFDIMWETISTGNVWNDEIRNKAKDGSYVWLDTTIIPVLNDEHVPNQYIAIYTDLS” the “soluble on expression in E. coli” value was “not soluble”.
In the case of “ISDVKFTVRGNITYSKNEIIERDEENNVYAYQMKKGYRVNQNRGLIALGLFKDYDDIRNSPTQKYGPVMPGDIKYKDVNGDGVVNDGDIVAIGSTSKPNLIYGLGLSATWKGLDVSLHFQGAGKSQFFTYGKCIWAFTEGQWGNILKGTLDNRWVDAETAQKLGIPANENPNASYPRLSYTDNGNGNTTIYEYKNNYRNSTYWLRNGSYVRLKTIDVGYTLPKKIVNKIHFNNVRIFMTGTNLLTWSSFKLWDPEMGASRGEQYPLAKSITLGLSVNL”, the “soluble on expression in E. coli” value is reported as “not soluble”.
For “ITGTSTVGVGRGVLGDQKNINTTYSTYYYLQDNTRGNGIFTYDAKYRTTLPGSLWADADNQFFASYDAPAVDAHYYAGVTYDYYKNVHNRLSYDGNNAAIRSSVHYSQGYNNAFWNGSQMVYGDGDGQTFIPLSGGIDVVAHELTHAVTDYTAGLIYQNESGAINEAISDIFGTLVEFYANKNPDWEIGEDVYTPGISGDSLRSMSDPAKYGDPDHYSKRYTGTQDNGGVHINSGIINKAAYLISQGGTHYGVSVVGIGRDKLGKIFYRALTQYLTPTSNFSQLRAAAVQSATDLYGSTSQEVASVKQAFDAVGVK”, the “soluble on expression in E. coli” value was “soluble”.
With “IVMAETKETVIDEVVVTGTGAQKKVTVTGAVTTVDVSQLRTPTASITNALAGNVAGILARQTSGQPGSNISEFWIRGISTFGAGGSALVLVDGFERDMNEINVEDIQDFSVLKDASATAIYGSRGANGVVLITTKRGKEGK” the “soluble on expression in E. coli” value was “not soluble”.
With “KDADHIHHLIDQSLIAKGFQEILTNSLTKGAYNELLSKQEDAVPILNKLSEELAFMRPSLAFTGLETVAYNINRRQKNLKLFEWGKVYFKRGTKYNEYNRLSVFITGNQHAESWNTPSKTVDFFDMKAVVVQILEKLHIAVTQVQEIESNPLFSKGVIYKHAGKELVQFGYISQAALKATDVKQEVLFADFNADLLLELYSNKSKYKEIS” the “soluble on expression in E. coli” value was “not soluble”.
With “KEPSHNSFTFNESLSFTGFSKLDNNTNFNASIVSDDNRAGAMVFGQARYRNHWDANNDGYSELGKIDARSLGAHSYLRLSDYSKLTGEFHTISEFRRGGDRIDLPPHVVGVAEQTDHSVFSGNLKYDLFSSNYKHHFQAYTSGQIVNRKSYYGGIGEIDVNGHPGGTEGYPIPQDQYGNNYGVTKGKTYMGGIQYSYDLDKFLLMPSQLLFGAEYTRDELNDVMPILSWQTGEDANGNTIPLYPELDQNINNYSLFGQNEWKNDRWSILVGARLDKHSEVKDMILSPRTTLRFNVNPDINLRATYAKGFRAPQVFDEDLHVGVVGGEAQKVFNDPNLKPEISHAFSLSADMYHRFGNVQTNFLVEGFYTRLLDVFTNEEQPDQHDGIKRYTRINGSGAKVFGLNLEGKVAYKSFQLQAGLTLASNKYDEAQEWGLNTVKDTNGAFVTEANANGQQEYKNESMTDTQITRTPSVYGYFTLAYNPAHSWNIALTGAYTGQMYVPHAIEYGVKSAELDIMQNNPEITDETGKAPRIDELKKTPAFFDLGLKVGYDFHVFQATEVQLYVGMNNIFNSFQKDFDRGAARDSGYIYGPTQPRTGYMGLVVKF” the “soluble on expression in E. coli” value was “not soluble”.
With “KEVRLSKHFYEDKEIEEIKHKDLAETPFQQQVIDYLYRHIAAQKEKVVEQQLQIKNHEQTITEFVHDIKTPVTAMKLLIDQENDDQRKRALLFEWSRINEMLDKQLYLTRLETHHRDMYFDYISLKRMVIDEIQVTRHISQAKGIGFELDFKDEQKVYTDVKWCRMMIRQVLSNSLKYSDNSTINLSGYNIEGHVVLKIKDYGRGISKRDLPRIFDRGFTSTTDRNDTASSGMGLYLVQSVKEQLGIEVKVDSIVGKGTTFYFIFPQQNEIIERMSKVTRLSF” the “soluble on expression in E. coli” value was “not soluble”.
With “KGTLYVVGTPIGNLRDITLRALEILSAVDCIAAEHIQHAQKLLAGHALHTTSTRIMPLHQHNEGSAVEKIIELLGSGKSVALISDAGTPAISDPGALLVQQVLARSLPVVPIPGA” the “soluble on expression in E. coli” value was “not soluble”.
In the case of “KIGKHTIKFPIFQGGMGVGISWDELAGNVAKEGALGVISAVGTGYYKNMRFVERIVAKKPFEALNFYSKKALNEIFANARKICGNNPLGANILYAINDYGRVLRDSCEAGANIIITGAGLPTNMPEFAKDFSDVALIPIISSAKALKILCKRWSDRYKRIPDAFIVEGPLSGGHQGFKYEDCFKEEFRLENLVPKVVEASKEWGNIPIIAAGGIWDRKDIDTMLSLGASGVQMATRFLGTKECDAKVYADLLPTLKKEDILLIKSPVGYPARAINTGVIKRIEEGNAPKIACVSNCVAPCNRGEEAKKVGYCIADGLGRSYLGNREEGLYFTGANGYRVDKIISVHELIK”, the “soluble on expression in E. coli” value is reported as “not soluble”.
For “KKITRPIEKLSDTVSQMAKGQYDTRAKIKTDGEVGDLVNSFNIMADRLEKNIEELEDTARRQEDFTAAFAHELKTPLTSIIGYSDMMRSMDLEKEEISEYSNYIFLQGKRLEKLSFTLMDLISLDKQKIEFNRISTEKMFNDIEKTVEQMLREHNIRFKMSVEPAVIVGNEDLLKSLFMNIIDNGRKAISGQGIIALKAIKTEKGYTVFIQDNGCGMEKSEIKKITEAFYMIDKSRARKEGGAGIGMSLCKKIVSIHNAKWSVRSKPGKGTIISIVFQEGQN”, the “soluble on expression in E. coli” value was “not soluble”.
For “KKSPSAGSGSNGGNKKISQEEGEDNGGEDNKKLRGALSSAILSEKPNVKWEDVAGLEGAKEALKEAVILPVKFPHLFKGNRKPTSGILLYGPPGTGKSYLAKAVATEANSTFFSVSSSDLVSKWMGESEKLVKQLFAMARENKPSIIFIDQVDALTGTRGEGESEASRRIKTELLVQMNGVGNDSQGVLVLGATNIPWQLDSAIRRRFERRIYIPLPDLAARTTMFEINVGDTPSVLTKEDYRTLGAMTEGYSGSDIAVVVKDALMQPIRKIQSATHFKDVSTEDDETRKLTPSSPGDDGAIEMSWTDIEADELKEPDLTIKDFLKAIKSTRPTVNEDDLLKQEQFTRDFGQEGN”, the “soluble on expression in E. coli” value was “soluble”.
